Data as given in publication PMC7761212 (2020).

Target: AHb1 (Arabidopsis thaliana, UniProt O24520)
Assay: size exclusion chromatography

Kd | Binder
1.2 µM | AHb1 (protein, ferrous-oxy heme (O2-bound)) MESEGKIVFTEEQEALVVKSWSVMKKNSAELGLKLFIKIFEIAPTTKKMFSFLRDSPIPAEQNPKLKPHAMSVFVMCCESAVQLRKTGKVTVRETTLKRLGASHSKYGVVDEHFEVAKYALLETIKEAVPEMWSPEMKVAWGQAYDHLVAAIKAEMNLSN
11 µM | AHb1 (protein, ferric heme) MESEGKIVFTEEQEALVVKSWSVMKKNSAELGLKLFIKIFEIAPTTKKMFSFLRDSPIPAEQNPKLKPHAMSVFVMCCESAVQLRKTGKVTVRETTLKRLGASHSKYGVVDEHFEVAKYALLETIKEAVPEMWSPEMKVAWGQAYDHLVAAIKAEMNLSN
